Experiment [1] concerns RA synovial membrane cells. Kind of experiment: Cytokine synthesis in RA synovial membrane cells stimulated with FBG. Format: cell-based, human. Conditions: FBG 1.0-0.01 μM, 24 h, over spontaneous production. From the text: (§1) RA membrane cells (representing a mixed population of all synovial cell types) were isolated from synovial membranes obtained from patients undergoing joint replacement surgery as previously described (Brennan (1989)). RA synovial fibroblasts were isolated from the mixed population of RA membrane cells as previously described (Brennan (1989)). The study was approved by the local Trust ethics committee (Riverside NHS Research Committee), and waste tissue (synovium after joint replacement surgery) was obtained only after receiving signed informed consent from the patient and anonymyzing the tissue to protect patient identity.
Immediately after isolation, RA membrane cells and macrophages were cultured at 1×10^5 cells/well in RPMI 1640 containing 10% (v/v) FBS and 100 U/ml (Units/ml) penicillin/streptomycin in 96-well tissue culture plates for 24 hours before stimulation. […]
(§2) Supernatants were subsequently examined for the presence of the cytokines TNF-α, IL-6, and IL-8 by enzyme-linked immunosorbent assay (ELISA) according to the manufacturer's instructions. Absorbance was read on a spectrophotometric ELISA plate reader (Labsystems Multiscan Biochromic, Vantaa, Finland) and analyzed using the Ascent software program (Thermo Labsystems, Altrincham, UK).

Experiment [2] has as its system RA synovial fibroblasts. Kind of experiment: Cytokine synthesis in RA synovial fibroblasts stimulated with tenascin-C, FBG or LPS. Type of experiment: cell-based, human. To be noted: 24 h; LPS 10 ng/ml.
Text: as §1
(§3) Immediately after isolation, RA membrane cells and macrophages were cultured at 1×10^5 cells/well in RPMI 1640 containing 10% (v/v) FBS and 100 U/ml (Units/ml) penicillin/streptomycin in 96-well tissue culture plates for 24 hours before stimulation. Synovial fibroblasts (used only at either passage number 2 or 3) were cultured at 1×10^4 cells/well in DMEM containing 10% (v/v) FBS and 100 U/ml penicillin/streptomycin in 96-well tissue culture plates for 24 hours before stimulation.
(§4) Cells were incubated for 24 hours at 37° C. with the indicated doses of tenascin-C and recombinant tenascin-C fragments (1.0 μM-1.0 nM). Cells were also stimulated where indicated with LPS (1 ng/ml for human macrophages, 10 ng/ml for human fibroblasts, RA membrane cells and HEKs, 100 ng/ml for MEFS and BMDMs and 10 ng/ml for HEKS), PAM3 (10 ng/ml for human macrophages, human fibroblasts, and HEKs, 100 ng/ml for MEFs and BMDMs), murine IL-1 (5 ng/ml for MEFS) and murine TNF-α (100 ng/ml for MEFS). Unless specifically stated otherwise rough LPS was used for in vitro studies.
(§5) Where stated, cells were pre-incubated with 10 μg/ml anti-CD14 antibody, 10 μg/ml IL1 receptor antagonist, 10 μg/ml anti-TLR2 antibody, 25 μg/ml anti-TLR4 antibody, 10 or 25 μg/ml isotype control antibody, 25 μg/ml polymyxin B, or 1 μg/ml msbB LPS, for 30 minutes at 37° C. before stimulation. Where stated, recombinant tenascin-C and FBG, and LPS were boiled for 15 minutes before addition to cells
as §2

Experiment [3] relates to knee joint of TLR2 and TLR4 null mice. Briefly: Intra-articular injection of FBG in TLR2 and TLR4 null mice. Format: in vivo. Conditions: 1 μg FBG intra-articular, 3 days. From the text: Homozygous TLR2 and TLR4 deficient mice on a C57BL/6 background (an inbred strain of mice with a black coat) were obtained from B&K Universal (Hull, UK) Hoshino (1999) and Takeuchi (1999). Homozygous MyD88 deficient mice on a C57BL/6 background were provided by the Sanger Institute (Cambridge, UK). Age matched congenic inbred wild type C57B/L6 mice were obtained from Charles River (Margate, UK). For isolation of mouse embryo fibroblasts one female aged 8-10 weeks was mated with two males aged 8-10 weeks. For isolation of bone marrow derived macrophages mice were female and between 10-12 weeks of age at the time of experimentation.
Wild type mice were anesthetized by intraperitoneal injection of 150 μl of Hypnorm diluted 1:10 in sterile water and then injected with 100 ng, 1 or 3 μg FBG in 10 μl of sterile PBS into the right knee joint using a sterile 33-gauge microcannula. Control mice received an injection of 10 μl PBS alone or were not injected.
On days 3 and 7, mice were euthanized, the knee joints were excised and fixed in 10% (volume/volume) buffered formalin, decalcified, with 10% EDTA and processed to paraffin.
Coronal tissue sections (4 μm) were cut at 7 depths throughout the joint; 80 μm apart and stained with hematoxylin and eosin or Safranin-O to assess joint pathology. Histopathologic changes were scored using the following parameters as described in Van Lent (2006). […]

Experiment [4] has as its system primary human macrophages. Briefly: Cytokine synthesis in primary human macrophages stimulated with tenascin-C or its domains. Format: cell-based. As for the experimental part:
Human monocytes were isolated from peripheral blood (London Blood Bank) and macrophages were derived from monocytes after differentiation for 4 days with 100 ng/ml of M-CSF as previously described (Foxwell (1998)).
as §3, §4, §5, §2

The results in this text go back to patent publication US20200362024A1, “BIOLOGICAL MATERIALS AND USES THEREOF” (IMPERIAL INNOVATIONS LIMITED, priority 2009, published 2020).

B1: FBG: recombinant fibrinogen-like globe, 227 amino acid globular domain at the C terminal of tenascin-C (protein)
chain: GLLYPFPKDCSQAMLNGDTTSGLYTIYLNGDKAEALEVFCDMTSDGGGWIVFLRRKNGRENFYQNWKAYAAGFGDRREEFWLGLDNLNKITAQGQYELRVDLRDHGETAFAVYDKFSVGDAKTRYKLKVEGYSGTAGDSMAYHNGRSFSTFDKDTDSAITNCALSYKGAFWYRNCHRVNLMGRYGDNNHSQGVNWFHWKGHEHSIQFAEMKLRPSNFRNLEGRRKRA
Take B1: in experiment [1], the “synthesis of IL-6, IL-8 and TNF-α in RA synovial membranes” value was “further enhanced”. In addition, in experiment [2], the “IL-6 synthesis in RA synovial fibroblasts” value was “stimulated” and the “IL-8 synthesis in RA synovial fibroblasts” value was “did not induce”. The “joint inflammation in TLR2 null mice” value in experiment [3] is listed as “able to induce”. In addition, the “TNF-α, IL-6 and IL-8 synthesis in human macrophages” value in experiment [4] (1.0 μM tenascin-C domains, 24 h) is given as “stimulated”. For the same molecule, the “cytokine stimulation: heat sensitivity and effect of polymyxin B” value in experiment [4] (boiled 15 minutes, 25 μg/ml polymyxin B pre-incubation, human macrophages and synovial fibroblasts) was “heat sensitive and unaffected by polymyxin B”.
